According to patent US7792645B2, “Three-dimensional structure of chalcone isomerase and methods of use thereof” (The Salk Institute for Biological Studies, priority 2000, dated 2010):
Changes are numbered by the printed parent chain. Names and notes keep the numbering of the source.

B1: CHI wild-type: chalcone isomerase from Medicago sativa (alfalfa), SEQ ID NO:1, expressed in E. coli (protein, listed as Medicago sativa)
chain: MAASITAITVENLEYPAVVTSPVTGKSYFLGGAGEXGXTIEGNFIKFXAIGVYLEDIAVASLAAKWKGKSSEELLETLDFYRDIISGPFEKLIRGSKIRELSGPEXSRXXMEXCVAHLKSVGTYGDAEAEAMQKFAEAFKPVNFPPGASVFYRQSPDGILGLSFSPDTSIPEKEAALIENKAVSSAVLEXXIGEHAVSPDLKRCLAARLPALLNEGAFKIGN
modifications: MOD_RES (36) Arg, Met, Lys, Ala, His or Gln
B2: CHI Y106F: alfalfa chalcone isomerase mutant, Tyr 106 substituted by phenylalanine (protein, UniProt P28012 1-222, looked up, variant Y106F)
Chalcone--flavanone isomerase …: B1 chain with X36R, X38L, X48T, X106F, X109K, X110V, X113N, X190T, X191M

Assays:
CHI active site = biological target: T1, CHI active site (Medicago sativa, UniProt P28012); assay: Co-crystallization of CHI with (2S/2R)-naringenin, X-ray structure; assay type: binding, Medicago sativa (alfalfa); conditions: commercial mixture of (2S)- and (2R)-naringenin used for co-crystallization
T1 construct: histidine tag (pHIS8 vector) (N, cleaved yes); made in house; host or cells: E. coli BL21(DE3)
T1 sequence (P28012 1-222): B1 chain with X36R, X38L, X48T, X106Y, X109K, X110V, X113N, X190T, X191M
Protocol: Crystals of CHI (SEQ ID NO:1) were grown at 4° C. by vapor diffusion using the hanging drop method. A 2 μl drop containing a 1:1 mixture of 25 mg ml^−1 CHI and crystallization buffer (25% glycerol, 1.8-2.0 M ammonium sulfate and 0.05 M PIPES, pH 6.5) yielded diffraction quality crystals within a few days at 4° C. Crystals grew in space group P6522 with unit cell dimensions of a=90.37 Å; c=352.86 Å with two molecules per asymmetric unit and a solvent content of 72%. Native CHI diffraction data (105 K) were collected at beamline 7-1 of the Stanford Synchrotron Radiation Source (SSRL 7-1) on a 30 cm MAR imaging plate system. For generation of heavy atom derivatives, CHI crystals were soaked in mother liquor with either 1.2 mM K2OsCl6 or 1 mM HgCl2 for 12-16 hours. Heavy atom data (105 K) were collected at SSRL 9-1 on a 30 cm MAR imaging plate system. All images were indexed and integrated using DENZO and the reflections merged with SCALEPACK (Otwinowski, Z. & Minor, W., Methods Enzymol. 276:307-326, 1997). Data reduction was completed using programs from CCP4 (Collaborative Computational Project 4 (CCP4) Acta Crystallogr. D53:240-255, 1994) (See Table 3). […]

chalcone isomerase (CHI) [1] = assay: CHI enzyme assay, steady-state kinetics of 6′-deoxychalcone cyclization; assay type: biochemical, Medicago sativa (alfalfa); conditions: for kcat: cyclization of 6′-deoxychalcone, pH 7.5, substrate 2-50 μM; for kcat / Km: 25° C.; for Km: substrate 6′-deoxychalcone, pH 7.5
Protocol: CHI assays were performed at 25° C. in a 0.5 ml reaction volume containing 0.05 M Hepes (pH 7.5), 50 μM 6′-deoxychalcone, and 3% ethanol as co-solvent. Time-dependent decreases in 6′-deoxychalcone absorbance (λmax=390 nm; ε=29,400 M^−1 cm^−1) were monitored with a Beckman DU-640 spectrophotometer. Determination of steady-state kinetic constants used the standard assay system with varied concentrations of substrate (2-50 μM) following fitting to the Michaelis-Menton equation using KALEIDAGRAPH (Abelbeck Software).

[2] = biological target: T2, alfalfa chalcone synthase 2 (Medicago sativa, UniProt P30074); assay: Gel filtration and analytical ultracentrifugation for protein association in vitro; assay type: binding
T2 sequence (P30074 1-389): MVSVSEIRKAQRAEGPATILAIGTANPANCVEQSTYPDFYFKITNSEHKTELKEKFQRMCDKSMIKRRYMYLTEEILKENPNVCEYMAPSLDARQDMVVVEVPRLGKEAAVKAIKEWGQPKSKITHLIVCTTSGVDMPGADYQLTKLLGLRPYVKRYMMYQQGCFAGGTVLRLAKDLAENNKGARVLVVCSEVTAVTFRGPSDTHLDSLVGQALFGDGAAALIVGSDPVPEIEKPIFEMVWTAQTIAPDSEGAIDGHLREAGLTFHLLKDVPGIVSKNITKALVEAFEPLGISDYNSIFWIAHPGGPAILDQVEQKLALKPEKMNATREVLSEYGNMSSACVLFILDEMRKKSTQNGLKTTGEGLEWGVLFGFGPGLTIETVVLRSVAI

chalcone isomerase (CHI) [3] = conditions: cyclization of chalcone; cited from earlier work

Molecule | binding to CHI active site in co-crystal (CHI active site) | kcat (chalcone isomerase (CHI) [1]) [s⁻¹] | kcat (chalcone isomerase (CHI) [1]; listed as wild-type CHI) [s⁻¹] | Km (chalcone isomerase (CHI) [1]) [µM] | association of alfalfa CHI and alfalfa chalcone synthase 2 [2] | enzyme-catalyzed rate over spontaneous conversion rate (chalcone isomerase (CHI) [3]) | reduction in reaction rate (chalcone isomerase (CHI) [1]; Y106F mutant versus wild-type CHI, 6′-deoxychalcone) [fold] | kcat (chalcone isomerase (CHI) [1]; listed as CHI Y106F mutant) [s⁻¹]
O=C1C[C@@H](c2ccc(O)cc2)Oc2cc(O)cc(O)c21 [(2S)-naringenin, 5,7,4′-trihydroxyflavanone] | bound the CHI active site | – | – | – | – | – | – | –
B1 | – | 73.07 ± 8.62 | 73.07 | 25.7 | failed to detect association | 10^7 fold | – | –
B2 | – | 1.15 ± 0.085 | – | 29.1 | – | – | 100 | 1.15
